Source: US20240279288A1, “APPLICATION OF PLANT JAZ PROTEINS AND DERIVED POLYPEPTIDES IN PREVENTION AND TREATMENT OF HUMAN AND ANIMAL TUMORS” (ANYANG INSTITUTE OF SINO-COTTON INDUSTRY INNOVATION, priority 2021, published 2024)

Key:
[1] = target: T1, c-Myc (Homo sapiens, UniProt P01106); test: GST Pull down experiment with c-Myc; type: binding; design: with the full length of c-Myc and NMYC, respectively; expressed in transfected cells; host or cells: yeast Y2HGold; conditions: GST-c-Myc and His-GhJAZ1 fusion proteins
T1 sequence (P01106 whole entry, the tested form may be a part): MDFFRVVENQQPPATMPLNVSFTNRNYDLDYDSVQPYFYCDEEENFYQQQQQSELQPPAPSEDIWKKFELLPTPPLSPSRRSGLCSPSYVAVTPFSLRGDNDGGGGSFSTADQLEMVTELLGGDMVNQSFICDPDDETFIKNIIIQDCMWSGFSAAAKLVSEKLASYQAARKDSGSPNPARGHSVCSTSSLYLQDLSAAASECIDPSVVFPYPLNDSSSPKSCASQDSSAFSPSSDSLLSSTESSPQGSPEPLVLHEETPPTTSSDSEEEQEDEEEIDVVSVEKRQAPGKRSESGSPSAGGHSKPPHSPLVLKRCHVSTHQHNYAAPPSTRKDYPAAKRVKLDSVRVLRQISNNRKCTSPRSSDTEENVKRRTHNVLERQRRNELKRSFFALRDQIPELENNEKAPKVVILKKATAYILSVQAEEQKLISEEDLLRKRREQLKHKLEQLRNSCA
Source text: Simultaneously, the interaction was validated by GST Pull down experiment. Firstly, pET-30a-GhJAZ1 (the DNA sequence set forth in SEQ ID No. 39 was inserted into pET-30a (+) vector (YouBio, Cat. No.: VT1212) between NdeI and HindIII) and pGEX-4T-1-c-Myc vectors (the CDS sequence of c-Myc (NCBI accession number: NM_002467.6) was inserted into pGEX-4T-1 vector (YouBio, Cat. No.: VT1253) between BamHI and EcoRI) was constructed and transformed into Escherichia coli BL21, which was placed on ice for 30 min, followed by heat shock at 42° C. for 60 s, and then placed on ice for 2 min, and then LB medium was added for cultivation at 37° C. and 200 rpm for 1 h, which was plated onto LB plates containing corresponding antibiotics for cultivation at 37° C. After colonies grown out, monoclonal clones were picked and shaking for incubation and expanded until the medium began to turn slightly white, and then different concentrations of IPTG were added for induction and cultured overnight under different temperatures setting. Subsequently, centrifugation at 5,000 rpm, 4° C. was carried out for 10 min, with addition of an equal volume of PBS (supplemented with PMSF and DTT) for resuspending. […] The supernatant was transferred into a protein purification column, and washed and eluted following incubation, and then proteins were detected and collected dropwise using protein pre-staining solution. […]

[2] = target: T1, c-Myc; test: CO-IP with c-Myc in HEK293 cells; type: binding; design: host or cells: HEK293 cells (method paragraph: 293T)
Method: (§1) Steps of method of CO-IP experiment: Non-denaturing lysate was added to 293T cell culture plate (Pricella, Cat. No.: CL-0005), and the cells were completely lysed at 4° C. The lysate was centrifuged at 12,000 rpm for 10 min and the supernatant was collected. The corresponding antibody was added to the obtained non-denatured protein solution, which was incubated overnight at 4° C. Pierce™ protein A/G magnetic agarose (Thermo Fisher Scientific, Inc.) were washed with lysis buffer, followed by addition pre-treated beads to the cell lysate, and incubation at room temperature for 2 hours. The mixture was centrifuged at 4° C., 2,500 rpm for 5 min with supernatant removed, and the agarose beads were washed 5 times with 1 ml of lysis buffer. An appropriate amount of protein loading buffer was added to the pellet, and the sample was incubated in water bath at 100° C. for 10 min. The band of interest was detected by Western blotting.
(§2) Immunoprecipitation method (method of the experiment as Example 3) was used.

[3] = target: T2, NMYC (Homo sapiens, UniProt P04198); test: CO-IP with NMYC in HEK293 cells; type: binding
T2 construct: with the full length of c-Myc and NMYC, respectively; expressed in transfected cells; host or cells: yeast Y2HGold
T2 sequence (P04198 1-464): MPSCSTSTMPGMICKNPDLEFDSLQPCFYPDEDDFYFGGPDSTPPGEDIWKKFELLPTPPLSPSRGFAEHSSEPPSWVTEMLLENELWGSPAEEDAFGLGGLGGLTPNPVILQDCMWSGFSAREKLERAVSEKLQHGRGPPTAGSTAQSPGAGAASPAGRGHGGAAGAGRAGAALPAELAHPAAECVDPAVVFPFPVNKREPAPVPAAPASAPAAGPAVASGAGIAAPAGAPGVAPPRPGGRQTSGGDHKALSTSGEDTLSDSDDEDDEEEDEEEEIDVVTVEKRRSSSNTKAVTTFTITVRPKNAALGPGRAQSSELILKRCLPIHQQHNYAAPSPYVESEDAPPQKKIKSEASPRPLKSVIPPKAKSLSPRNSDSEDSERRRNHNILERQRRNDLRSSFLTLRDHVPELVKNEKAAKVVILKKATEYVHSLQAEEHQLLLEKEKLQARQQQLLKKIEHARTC
Method: as §1, §2

[4] = tested on: downstream genes of c-Myc in normal cell MCF10A; test: RT-PCR of c-Myc downstream genes, MCF10A; type: cell-based, human
Method: Identification at the RNA level: RNA was extracted using RNA extraction kit (RNAprep Pure Polysaccharide Polyphenol Plant Total RNA Extraction Kit (DP441), manufacturer: TIANGEN BIOTECH (BEIJING) CO., LTD.), and then cDNA was obtained using two-step reverse transcription kit (a third-generation premix for two-step de-genomization and reverse transcription, Cat. No.: MR05201). cDNA as a template was added into a 96-well plate, with addition of SYBR®Green I chimeric dye (an antibody dye quantitative PCR premix, Cat. No.: MQ10101) and gene primers for three-step qPCR amplification. Finally, the relative gene expression was calculated based on the Ct value.
Wherein, the sequences of primers were as follows: […]

B1: GhJAZ1: cotton JAZ1 protein, gene number Gh_A05G0260, sequence SEQ ID No. 4; prokaryotically expressed with His tag, about 30 KD (protein)
chain: MSSCSESTAMKPARSPEKPSFAQTCNLLSQYLKEKGSFGDLSLGMTCNVEANGTPVVPPPTMNLFPLNDKSDDVCGRNGGNPKNLTSMDLFPQQAGLASKDDSPNKLEPQTAPMTIFYGGQVIVFNDFPANKAKEIMLLASNSSSQSNNSFNPIPFTSSIARSPIESSIGVPPTSKPVHPAQRAVPGDLPIARRASLHRFLEKRKDRITAKAPYQINNSAAAPSLSGDNKSWLGLAAQSP
modifications: His tag
notes: prokaryotically expressed with His tag, about 30 KD
With B1 the “interaction with c-Myc” value [1] was “interacted”, the “interaction with c-Myc” value [2] was “interacted” and the “interaction with NMYC” value [3] was “interacted”. For the same molecule, the “expression of Bcl2 and MCM5” value [4] was “significantly decreased but at a minor extent” and the “expression of P21C, CNB1, CCND1, and CCNE1” value ([4]; at a minor extent) was “significantly increased”.
